Data as given in article PMC3793875, “Fluorescence correlation spectroscopy, combined with bimolecular fluorescence complementation, reveals the effects of β-arrestin complexes and endocytic targeting on the membrane mobility of neuropeptide Y receptors” (Biochimica et Biophysica Acta, 2012).
Numbering of substitutions follows the chain as printed.

T1: Y1 receptor-Gc (rat Y1 receptor fused at the C terminus to sfGFP fragment 155-238) (rat, UniProt P21555 1-382)
T1 construct: neuropeptide Y receptor type 1, rat; cDNA transferred to the pCMV FLAG vector for transfection; also called Y1-Gc; receptor of the Y1 A1, Y1 A2 and Y1 A2Δ cell lines; source: HEK293T, stably transfected into β-arrestin-Gn clonal lines; live or fixed cells, or membranes
T1 sequence (looked up): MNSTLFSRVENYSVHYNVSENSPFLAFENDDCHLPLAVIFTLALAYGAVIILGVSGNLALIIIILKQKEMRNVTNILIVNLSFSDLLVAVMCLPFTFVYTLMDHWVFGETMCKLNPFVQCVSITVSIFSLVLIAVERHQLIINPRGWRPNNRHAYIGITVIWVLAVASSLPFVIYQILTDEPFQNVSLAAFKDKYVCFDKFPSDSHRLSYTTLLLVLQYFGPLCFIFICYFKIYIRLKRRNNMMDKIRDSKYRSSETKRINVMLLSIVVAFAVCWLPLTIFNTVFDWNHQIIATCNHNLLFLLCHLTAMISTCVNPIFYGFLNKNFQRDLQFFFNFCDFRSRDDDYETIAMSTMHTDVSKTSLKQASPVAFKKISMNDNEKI

T2: Y1 6A receptor-Gc (rat, UniProt P21555 1-382, S352A | T353A | T356A | S359A | T361A | S362A)
T2 construct: neuropeptide Y receptor type 1, rat, with six C tail serine/threonine residues changed to alanine; also called Y16A-Gc; receptor of the Y16A A1 and Y16A A2 cell lines; source: HEK293 cells stably co-expressing β-arrestin-Gn; live cells or membranes
T2 sequence (looked up): T1 sequence (looked up) with S352A, T353A, T356A, S359A, T361A, S362A

T3: Y1 receptor-sfGFP (rat NPY Y1 receptor, N-terminal FLAG, C-terminal superfolder GFP) (rat, UniProt P21555 1-382)
T3 construct: neuropeptide Y receptor type 1, rat; sfGFP here is enhanced GFP with S30R, Y39N, M153T and V163A (wild type GFP numbering), lacking the start Met; linker LRPLE between receptor C terminus and sfGFP; also called Y1sfGFP; Y1-sfGFP; source: membranes or live cells; not shown: sfGFP via linker LRPLE, C-terminal, kept
T3 sequence (looked up): T1 sequence (looked up)

T4: Y1 6A receptor-sfGFP (rat, UniProt P21555 1-382, S352A | T353A | T356A | S359A | T361A | S362A)
T4 construct: neuropeptide Y receptor type 1, rat, with six C tail serine/threonine residues changed to alanine; also called Y16AsfGFP; source: membranes or live cells; not shown: sfGFP via linker LRPLE, C-terminal, kept
T4 sequence (looked up): T1 sequence (looked up) with S352A, T353A, T356A, S359A, T361A, S362A

B1: β-arrestin1-Gn (human β-arrestin1 fused at the C terminus to sfGFP fragment 2-172) (natural protein, UniProt P49407 1-418, looked up)
chain: MGDKGTRVFKKASPNGKLTVYLGKRDFVDHIDLVDPVDGVVLVDPEYLKERRVYVTLTCAFRYGREDLDVLGLTFRKDLFVANVQSFPPAPEDKKPLTRLQERLIKKLGEHAYPFTFEIPPNLPCSVTLQPGPEDTGKACGVDYEVKAFCAENLEEKIHKRNSVRLVIRKVQYAPERPGPQPTAETTRQFLMSDKPLHLEASLDKEIYYHGEPISVNVHVTNNTNKTVKKIKISVRQYADICLFNTAQYKCPVAMEEADDTVAPSSTFCKVYTLTPFLANNREKRGLALDGKLKHEDTNLASSTLLREGANREILGIIVSYKVKVKLVVSRGGLLGDLASSDVAVELPFTLMHPKPKEEPPHREVPENETPVDTNLIELDTNDDDIVFEDFARQRLKGMKDDKEEEEDGTGSPQLNNR
notes: β-arrestin1, human, full length with the stop codon removed; The keyword list gives Gn as sfGFP 2-173, the methods as 2-172; also called A1; not shown: Gn (sfGFP fragment 2-172) via linker QRPLE, C-terminal, kept
B2: peptide YY (PYY), unlabelled (peptide)
peptide: not shown
notes: neither species nor supplier is stated; surmised

Assays:
[1] = target: T1, Y1 receptor-Gc (rat Y1 receptor fused …); experiment: split reporter (BiFC, NanoBiT); sfGFP BiFC in stable HEK293 cells in 96 well plates, NPY 0.1 nM-3 μM for 60 min at 37 °C, fixed, confocal platereader images quantified by granularity analysis (average granule intensity/cell); conditions: partners not purified
[2] = target: T1, Y1 receptor-Gc (rat Y1 receptor fused …); experiment: radioligand binding; as a1 but on membranes of the HEK293T BiFC cell line co-expressing β-arrestin2 ΔLIEFD-Gn (Y1 A2Δ); 16 pM [125I]PYY; conditions: one partner purified
Y1 6A receptor-Gc [3] = target: T2, Y1 6A receptor-Gc; experiment: radioligand binding; as a1 but on membranes of HEK293T BiFC cell lines co-expressing β-arrestin2-Gn (Y1 A2, Y16A A2); 16 pM [125I]PYY; conditions: one partner purified
[4] = target: T1, Y1 receptor-Gc (rat Y1 receptor fused …); experiment: as above; conditions: one partner purified
[5] = target: T3, Y1 receptor-sfGFP (rat NPY Y1 receptor, …); experiment: radioligand binding; competition with [125I]PYY (16 pM for Y1, 10 pM for Y2 receptors) on membranes of tetracycline-induced 293TR Y receptor-sfGFP cell lines; 90 min at 21 °C; 25 mM HEPES, 2.5 mM CaCl2, 1.0 mM MgCl2, 0.1% BSA, 0.1 mg/ml bacitracin, pH 7.4; IC50 converted to pKi by the Cheng-Prusoff equation; conditions: one partner purified
Y1 6A receptor-sfGFP = target: T4, Y1 6A receptor-sfGFP; experiment: as above; conditions: one partner purified
Y1 6A receptor-Gc [6] = target: T2, Y1 6A receptor-Gc; experiment: radioligand binding; as a1 but on membranes of HEK293T BiFC cell lines co-expressing β-arrestin1-Gn (Y1 A1, Y16A A1); 16 pM [125I]PYY; conditions: one partner purified
[7] = target: T1, Y1 receptor-Gc (rat Y1 receptor fused …); experiment: as above; conditions: one partner purified

| Binder | pEC50 of NPY in stimulating the BiFC response (β-arrestin recruitment) [1] | pKi [2] | pKi (Y1 6A receptor-Gc [3]) | pKi [4] | pKi [5] | pKi (Y1 6A receptor-sfGFP) | pKi (Y1 6A receptor-Gc [6]) | pKi [7] |
| --- | --- | --- | --- | --- | --- | --- | --- | --- |
| B1 | 8.3 | – | – | – | – | – | – | – |
| B2 | – | 9.44 | 9.48 | 9.54 | 9.5 | 9.22 | 9.3 | 9.45 |
